Experimental data from PMC12489471, “A multi-dentate, cooperative interaction between endo- and exo-ribonucleases within the bacterial RNA degradosome” (Nucleic Acids Research, 2025).
Substitutions are numbered along the chain they refer to. “Also recorded” adds a separate entry of the source.

Tests used:
E. coli PNPase = biological target: T1, E. coli PNPase (E. coli, UniProt P05055 1-711); assay: SEC-MALS; Superdex 200 10/300 Increase, 100 µl at ~1 mg/ml, 25°C; buffer A (50 mM Tris pH 7.5, 100 mM NaCl, 100 mM KCl, 0.01% w/v b-DDM, 1 mM TCEP) or B (A without b-DDM) as Table S2 tells for each sample; the 1:1 ratio is one RNase E segment to one PNPase trimer (expected mass = trimer plus one segment); conditions: both partners purified
T1 construct: polynucleotide phosphorylase (PNPase), E. coli; also called polynucleotide phosphorylase; full-length PNPase; source: E. coli BL21(DE3), purified (ammonium sulfate, Q, butyl-Sepharose, SEC)
T1 sequence (looked up): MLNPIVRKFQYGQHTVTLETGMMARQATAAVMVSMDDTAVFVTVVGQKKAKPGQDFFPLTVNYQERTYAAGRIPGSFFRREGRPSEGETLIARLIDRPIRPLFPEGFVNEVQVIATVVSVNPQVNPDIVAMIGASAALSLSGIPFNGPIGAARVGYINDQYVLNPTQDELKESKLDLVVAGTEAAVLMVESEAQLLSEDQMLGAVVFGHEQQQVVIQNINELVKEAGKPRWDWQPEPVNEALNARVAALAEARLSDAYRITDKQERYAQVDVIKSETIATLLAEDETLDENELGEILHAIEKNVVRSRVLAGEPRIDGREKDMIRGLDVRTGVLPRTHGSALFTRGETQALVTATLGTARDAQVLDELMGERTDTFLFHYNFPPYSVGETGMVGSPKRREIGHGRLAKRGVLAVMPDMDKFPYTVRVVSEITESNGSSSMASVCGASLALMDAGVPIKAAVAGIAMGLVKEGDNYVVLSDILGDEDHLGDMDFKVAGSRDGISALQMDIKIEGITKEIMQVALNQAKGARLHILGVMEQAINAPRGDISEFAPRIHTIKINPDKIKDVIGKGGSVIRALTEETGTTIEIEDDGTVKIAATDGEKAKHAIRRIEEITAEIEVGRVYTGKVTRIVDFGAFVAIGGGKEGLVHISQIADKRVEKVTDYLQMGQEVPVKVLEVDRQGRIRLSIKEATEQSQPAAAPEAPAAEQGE

PNPase = biological target: T2, PNPase (Escherichia coli, UniProt P05055); assay type: binding, E. coli
T2 construct: made in house; host or cells: E. coli Evo21(DE3)
T2 sequence (P05055 whole entry, looked up): T1 sequence (looked up)
Excerpt: Briefly, at the N-terminal of the construct, there is an Hisx6 affinity tag that will be used for affinity purification. Following the Hisx6 tag there is an maltose-binding protein (MBP) tag with a TEV cleavage site to maintain solubility of the peptides. Following the MBP tag the gene encoding the peptide is inserted, and is then followed by intein, a self-cleavable tag, followed by a choline-binding domain, which can be used for an extra step of affinity purification. […] After expression, cells were harvested, resuspended in Lysis Buffer 2 (20 mM Tris–HCl, pH 8.0, 80 mM KCl, 300 mM NaCl, 20 mM Imidazole, 0.5 mM TCEP), and lysed with a cell disruptor (Emulsiflex, Avestin). […] After subsequent rounds of washing with Ni Equilibration Buffer supplemented with, respectively, 0.1% Triton-X, 1 M NaCl, and a final wash in Ni Equilibration Buffer, samples were eluted with Ni Elution Buffer (20 mM Tris–HCl, pH 8.0, 300 mM NaCl, 300 mM imidazole, 0.5 mM TCEP). Enriched fractions were then supplemented with 100 mM β-mercaptoethanol to catalyse intein self-cleavage overnight at room temperature. Treated samples were filtered and loaded on an amylose gravity flow column, equilibrated with Amy Equilibration Buffer (20 mM Tris–HCl, pH 8.0, 20 mM NaCl, 20 mM imidazole, 2 mM β-mercaptoethanol) and after washing, His-tagged TEV protease was applied to the resin and incubated at 4°C for 2 h.
PNPase carrying a C-terminal Hisx6 tag was expressed from pExp-cis-Ec_PNP-CHis vector in E. coli Evo21(DE3) cells, induced with 0.4 mM IPTG, at 18°C overnight. After expression, cells were harvested and resuspended in Lysis Buffer 2 (20 mM Tris–HCl, pH 8.0, 80 mM KCl, 300 mM NaCl, 20 mM imidazole, 0.5 mM TCEP), and lysed with a cell disruptor (Emulsiflex, Avestin). […] After subsequent rounds of washing with equilibration buffer supplemented with 0.1% Triton-X, or 1 M NaCl, the sample was eluted with Ni PNPCHis Elution Buffer (20 mM NaH2PO4, pH 8.0, 300 mM NaCl, 300 mM KCl, 5 mM MgCl2, 300 mM imidazole, pH 7.5, 10 mM β-mercaptoethanol). […] Fractions containing PNPase were run through a HiPrep™ 26/10 Desalting Column (GE Healthcare) and buffer exchanged to Q PNPCHis A (20 mM NaH2PO4, pH 8.0, 30 mM NaCl, 10% glycerol, 0.5 mM TCEP).
Interaction measurements were made using a Biacore T200 instrument (GE) at 25°C. PNPase with a 6xHisTag at the CTD was immobilized on a Series S Sensor Chip NTA (Cytiva) to provide a signal of 5 response units (RU). […] For the SPR analysis of the point mutants, binding to PNPase was measured at four different concentrations (0, 12.5, 25, and 50 nM). All concentrations were run in duplicates. The contact time was 60 s, while the dissociation time was 120 s, at a […] flow rate. […] The chip surface was regenerated with 350 mM EDTA in water, following manufacturer's instructions. Data were processed using the manufacturer’s BIAevaluation software.

[1] = biological target: T3, PNPase carrying a C-terminal Hisx6 tag (E. coli polynucleotide phosphorylase) (E. coli, UniProt P05055 1-711); assay: SPR; PNPase with C-terminal His6 tag immobilised on Series S Sensor Chip NTA (5 RU); Biacore T200, 25°C; 20 mM HEPES pH 7.2, 150 mM NaCl, 5 mM MgCl2, 0.5 mM TCEP, 0.05% Tween 20; six peptide concentrations up to 9000 nM (up to 5000 nM for RNase E 985–1061); contact 60 s, dissociation 120 s; conditions: both partners purified
T3 construct: polynucleotide phosphorylase (PNPase), E. coli; Immobilised through the His tag on an NTA chip for SPR; also called PNPase C-His; PNPase with a 6xHisTag at the CTD; source: E. coli Evo21(DE3), purified (Ni-NTA, butyl-Sepharose HIC, Q, Superdex S200); not shown: His6, C-terminal, kept
T3 sequence (looked up): T1 sequence (looked up)

[2] = SPR, mutant vs wildtype RNase E 960–1061

B1: RNase E 583-1061, avi-tagged (domain or fragment, E. coli, UniProt P21513 583-1061, looked up)
chain: SGGEETKPTEQPAPKAEAKPERQQDRRKPRQNNRRDRNERRDTRSERTEGSDNREENRRNRRQAQQQTAETRESRQQAEVTEKARTADEQQAPRRERSRRRNDDKRQAQQEAKALNVEEQSVQETEQEERVRPVQPRRKQRQLNQKVRYEQSVAEEAVVAPVVEETVAAEPIVQEAPAPRTELVKVPLPVVAQTAPEQQEENNADNRDNGGMPRRSRRSPRHLRVSGQRRRRYRDERYPTQSPMPLTVACASPELASGKVWIRYPIVRPQDVQVEEQREQEEVHVQPMVTEVPVAAAIEPVVSAPVVEEVAGVVEAPVQVAEPQPEVVETTHPEVIAAAVTEQPQVITESDVAVAQEVAEQAEPVVEPQEETADIEEVVETAEVVVAEPEVVAQPAAPVVAEVAAEVETVAAVEPEVTVEHNHATAPMTRAPAPEYVPEAPRHSDWQRPTFAFEGKGAAGGHTATHHASAAPARPQPVE
notes: The construct is described nowhere in the methods
- stoichiometry N (E. coli PNPase): 1

B2: RNase E 985-1053: RNase E peptide lacking the terminal Pro-rich motif (peptide)
chain: VAAEVETVAAVEPEVTVEHNHATAPMTRAPAPEYVPEAPRHSDWQRPTFAFEGKGAAGGHTATHHASAA
modifications: left off: His6, N-terminal, cleaved | MBP, N-terminal, cleaved | intein, C-terminal, cleaved | choline-binding domain, C-terminal, cleaved
notes: RNase E peptide lacking the terminal Pro-rich motif
- binding compared with the peptide including the region with Arg1056, in words (PNPase): significantly weaker binding
- KD range in words (PNPase; pH 7.2): high micromolar
- k a (PNPase; pH 7.2): 2.94E + 4 1/M s
- k d (PNPase; pH 7.2): 0.339 s⁻¹

B3: RNase E 1039-1061 (peptide, UniProt P21513 1039-1061, looked up)
chain: GAAGGHTATHHASAAPARPQPVE
notes: source: E. coli Evo21(DE3), pMxe vector, purified (Ni-NTA, amylose, TEV, Q, Superdex 75); not shown: His6, N-terminal, cleaved; MBP, N-terminal, cleaved; intein, C-terminal, cleaved
- Kd [1]: 5.92 µM
- koff [1]: 0.833 s⁻¹
- kon [1]: 140000 M⁻¹ s⁻¹

B4: RNase E 985-1061 (domain or fragment, E. coli, UniProt P21513 985-1061, looked up)
chain: VAAEVETVAAVEPEVTVEHNHATAPMTRAPAPEYVPEAPRHSDWQRPTFAFEGKGAAGGHTATHHASAAPARPQPVE
notes: as for B3
- Kd [1]: 0.00402 µM
- koff [1]: 0.0158 s⁻¹
- kon [1]: 3.93e+06 M⁻¹ s⁻¹

B5: RNase E 985-1061: RNase E peptide that includes both β1 and β2 motifs (peptide)
chain: B4 chain
modifications: left off: His6, N-terminal, cleaved | MBP, N-terminal, cleaved | intein, C-terminal, cleaved | choline-binding domain, C-terminal, cleaved
notes: RNase E peptide that includes both β1 and β2 motifs
- cause of increase in affinity over 1039–1061, in words (PNPase): both acceleration of on-rate and decrease of off-rate
- KD range in words (PNPase; pH 7.2): from the micromolar range to the low nanomolar range
- k a (PNPase; pH 7.2): 3.93E + 6 1/M s
- k d (PNPase; pH 7.2): 0.0158 s⁻¹

B6: RNase E 960–1039: RNase E peptide carrying the plausible secondary binding motif β2 (peptide)
chain: VVETAEVVVAEPEVVAQPAAPVVAEVAAEVETVAAVEPEVTVEHNHATAPMTRAPAPEYVPEAPRHSDWQRPTFAFEGKG
modifications: left off: His6, N-terminal, cleaved | MBP, N-terminal, cleaved | intein, C-terminal, cleaved | choline-binding domain, C-terminal, cleaved
- binding to PNPase (detected or not) (PNPase; pH 7.2): does not interact with PNPase; also recorded: no binding was detected

B7: RNase E 960-1061 (in the SEC-MALLS sample with PNPase) (domain or fragment, E. coli, UniProt P21513 960-1061, looked up)
chain: VVETAEVVVAEPEVVAQPAAPVVAEVAAEVETVAAVEPEVTVEHNHATAPMTRAPAPEYVPEAPRHSDWQRPTFAFEGKGAAGGHTATHHASAAPARPQPVE
notes: The expected mass of the complex fits one untagged segment of 10,585 Da on a PNPase trimer
- stoichiometry N (E. coli PNPase): 1

B8: RNase E 960 – 1061 R1012AR10546A: RNase E peptide with mutation of both Arg1012 and Arg1056 to alanine (peptide)
chain: B7 chain with R53A, R97A
modifications: left off: His6, N-terminal, cleaved | MBP, N-terminal, cleaved | intein, C-terminal, cleaved | choline-binding domain, C-terminal, cleaved
notes: RNase E peptide with mutation of both Arg1012 and Arg1056 to alanine
- Kd (dissociation rate constant, point mutants and wildtype) (PNPase; SPR, 25°C, immobilized PNPase C-His, HEPES pH 7.2, 0, 12.5, 25 and 50 nM (point mutants), contact 120 s, dissociation 120 s, duplicates): 0.12 s⁻¹
- KD range in words (double mutant) (PNPase; SPR, 25°C, immobilized PNPase C-His, contact 120 s): low micromolar range
- association rate compared to R1056A, in words (PNPase; SPR, double mutant vs slowest-binding single mutant (R1056A)): ten-fold slower
- association rate compared to the wildtype, in words (PNPase; [2]): about two orders of magnitude slower
- dissociation rate (off-rate) compared to the wildtype, in words (PNPase; [2]): faster off-rate
- effect on KD / binding compared to the wildtype, in words (PNPase; SPR, mutant vs wildtype RNase E 960–1061, listed as R1012AR1056A): significant decrease in binding; also recorded: significantly affected the binding to PNPase
